According to patent US20150183880A1:

Tests used:
[1] = biological target: IGF-1R and EGP-1 together on cancer cell lines (MCF-7, DU-145, ME-180); test: flow cytometry (FACScan), MCF-7 cells; structural control
[2] = biological target: recombinant human IGF-1R (R&D Systems, Catalog #391-GR), extracellular domain (human) (UniProt P08069); test: rhIGF-1R-coated beads; competitor unlabeled 24-57
[3] = biological target: recombinant human IGF-1R (R&D Systems, Catalog #391-GR), extracellular domain (human) (UniProt P08069); test: rhIGF-1R-coated beads; competitor unlabeled 24-60
[4] = biological target: recombinant human IGF-1R (R&D Systems, Catalog #391-GR), extracellular domain (human) (UniProt P08069); test: rhIGF-1R-coated beads; competitor unlabeled 24-31
[5] = biological target: recombinant human IGF-1R (R&D Systems, Catalog #391-GR), extracellular domain (human) (UniProt P08069); test: rhIGF-1R-coated beads; competitor unlabeled 3B7
[6] = biological target: recombinant human IGF-1R (R&D Systems, Catalog #391-GR), extracellular domain (human) (UniProt P08069); test: rhIGF-1R-coated beads; competitor unlabeled 1H7
[7] = biological target: recombinant human IGF-1R (R&D Systems, Catalog #391-GR), extracellular domain (human) (UniProt P08069); test: rhIGF-1R-coated beads; competitor unlabeled 2C8
[8] = biological target: recombinant human IGF-1R (R&D Systems, Catalog #391-GR), extracellular domain (human) (UniProt P08069); test: rhIGF-1R-coated beads; competitor unlabeled hR1
[9] = biological target: recombinant human IGF-1R (R&D Systems, Catalog #391-GR), extracellular domain (human) (UniProt P08069); test: rhIGF-1R-coated beads; competitor unlabeled R1
[10] = biological target: recombinant human IGF-1R (R&D Systems, Catalog #391-GR), extracellular domain (human) (UniProt P08069); test: rhIGF-1R-coated beads; competitor unlabeled αIR-3
[11] = biological target: recombinant human IGF-1R (R&D Systems, Catalog #391-GR), extracellular domain (human) (UniProt P08069); test: rhIGF-1R-coated beads; competitor unlabeled 17-69
[12] = biological target: recombinant human IGF-1R (R&D Systems, Catalog #391-GR), extracellular domain (human) (UniProt P08069); test: rhIGF-1R-coated beads; competitor unlabeled cR1
[13] = biological target: recombinant human IGF-1R (R&D Systems, Catalog #391-GR), extracellular domain (human) (UniProt P08069); test: rhIGF-1R-coated beads; competitor unlabeled MAB391
[14] = biological target: recombinant human IGF-1R (R&D Systems, Catalog #391-GR), extracellular domain (human) (UniProt P08069); test: rhIGF-1R-coated beads; competitor unlabeled 1-2
[15] = biological target: EGP-1 expressed on cancer cell lines (MCF-7, DU-145, ME-180) (UniProt P09758); test: flow cytometry (FACScan), ME-180 cells
Chain of EGP-1 expressed on cancer cell lines (MCF-7, DU-145, ME-180) (P09758 27-323 limits assumed): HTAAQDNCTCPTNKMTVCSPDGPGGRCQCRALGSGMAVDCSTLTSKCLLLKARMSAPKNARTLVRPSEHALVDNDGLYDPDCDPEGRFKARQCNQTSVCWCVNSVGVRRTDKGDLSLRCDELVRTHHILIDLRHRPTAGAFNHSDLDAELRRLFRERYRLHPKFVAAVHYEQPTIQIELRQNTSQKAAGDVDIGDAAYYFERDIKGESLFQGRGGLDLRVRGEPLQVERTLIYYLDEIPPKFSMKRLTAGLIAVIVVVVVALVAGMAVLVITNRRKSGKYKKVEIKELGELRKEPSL

[16] = biological target: EGP-1 expressed on cancer cell lines (MCF-7, DU-145, ME-180) (UniProt P09758); test: flow cytometry (FACScan), MCF-7 cells
[17] = biological target: EGP-1 expressed on cancer cell lines (MCF-7, DU-145, ME-180) (UniProt P09758); test: flow cytometry (FACScan), DU145 cells
[18] = biological target: IGF-1R expressed on cancer cell lines (MCF-7, MCF-7L, CaPan1, DU-145, ME-180, Hep G2, HT-29, LNCaP) (human) (UniProt P08069); test: 125I-IGF-1 binding to MCF-7L cells with antibody at 10 ng/mL
[19] = biological target: IGF-1R expressed on cancer cell lines (MCF-7, MCF-7L, CaPan1, DU-145, ME-180, Hep G2, HT-29, LNCaP) (human) (UniProt P08069); test: 125I-IGF-1 binding to MCF-7L cells with antibody at 0 ng/mL (baseline)
[20] = biological target: IGF-1R expressed on cancer cell lines (MCF-7, MCF-7L, CaPan1, DU-145, ME-180, Hep G2, HT-29, LNCaP) (human) (UniProt P08069); test: 125I-IGF-1 binding to MCF-7L cells with antibody at 1000 ng/mL
[21] = biological target: IGF-1R expressed on cancer cell lines (MCF-7, MCF-7L, CaPan1, DU-145, ME-180, Hep G2, HT-29, LNCaP) (human) (UniProt P08069); test: 125I-IGF-1 binding to MCF-7L cells with antibody at 100 ng/mL
[22] = biological target: IGF-1R and EGP-1 together on cancer cell lines (MCF-7, DU-145, ME-180); test: flow cytometry (FACScan), MCF-7 cells; control

Substance | % binding [2] | % binding [3] | % binding [4] | % binding [5] | % binding [6] | % binding [7] | % binding [8] | % binding [9] | % binding [10] | % binding [11] | % binding [12] | % binding [13] | % binding [14] | further results
22-20 (bispecific hexavalent DNL construct: hLL2 IgG-AD2 with four hA20 Fab-DDD2) (bispecific antibody) |  |  |  |  |  |  |  |  |  |  |  |  |  | % Positive [1]: 3.1%; MFI [1]: 2.11
Hex-hRS7 (monospecific hexavalent DNL construct of hRS7, anti-EGP-1) |  |  |  |  |  |  |  |  |  |  |  |  |  | % Positive [15]: 100%; MFI [15]: 59.6; % Positive [16]: 99.9%; MFI [16]: 35.7; % Positive [17]: 93.7%; MFI [17]: 17
human IgG (control) (antibody) |  |  |  |  |  |  |  |  |  |  |  |  |  | % Positive [22]: 2.34%; MFI [22]: 1.84
αIR-3 (commercial anti-IGF-1R mAb) (antibody) | 87% | 0% | 52% | 76% | 115% | 97% | 107% | 86% | 0% | 89% | 97% | 0% | 95% | 

Further lines, with some results ahead:

% binding [2] | % binding [3] | % binding [4] | % binding [5] | % binding [6] | % binding [7] | % binding [8] | % binding [9] | % binding [10] | % binding [11] | % binding [12] | % binding [13] | % binding [14] | Substance | further results
88% | 0% | 18% | 79% | 100% | 88% | 0% | 0% | 21% | 82% | 0% | 0% | 100% | 24-60 (commercial anti-IGF-1R mAb) (antibody) | 
 |  |  |  |  |  |  | 40% |  |  |  | 0% |  | MAB391 (commercial mouse anti-IGF-1R monoclonal antibody, R&D clone 33255.111) | % binding of 125I-IGF-1 [18]: 95%; % binding of 125I-IGF-1 [19]: 100%; % binding of 125I-IGF-1 [20]: 38%; % binding of 125I-IGF-1 [21]: 54%
